Broadly, the stoichiometry N is a count of units in the complex or per binding partner.

Where “and” joins values, the source holds several entries; their conditions need not be identical. Equal entries are not always repeated.

Assay [1] has as its target recombinant soluble NDV HN ectodomain including the stalk domain, without oligomerization domain (HN-M) (Newcastle disease virus). Kind of assay: SEC; Superdex 200 Increase 10/300 GL column, freshly purified NDV HN proteins.
Assay [2] has as its target recombinant soluble NDV HN ectodomain with tetrabrachion tetramerization domain (HN-TE) (not stated | Newcastle disease virus). Described as above.

Turning to “recombinant soluble NDV HN ectodomain including the stalk domain, without oligomerization domain (HN-M) (domain or fragment)”, the stoichiometry N in assay [1] was 2 and 4.

Consider “recombinant soluble NDV HN ectodomain with tetrabrachion tetramerization domain (HN-TE)”, for which the stoichiometry N in assay [2] turned out to be 4.

For the origin of these results see publication PMC11302929.
